Paper PMC11588112 (Proceedings of the National Academy of Sciences of the …, 2024)
Changes are numbered by the printed parent chain.

Target: mumps hemagglutinin neuraminidase (HN) globular head domain, monomeric (Mumps virus genotype G (strain not …))

B1: G6 (antibody, V domains shown)
VH: QIQLVQSGPELKKPGETVKISCKASGYTFTPYGLSWVKQAPGKVLKWMGWINTSSGVPTYADDFKGRFAFSLETSVSTAYLQINNLKNEDTATYFCARISVSFYYGLYFDYWGQGTTLTVSS
VL: DIQMTQSPSSMSVSLGDTVSITCHASQGIANNIGWLQQKPGKSFKGLLYHGSTLEDGVPSRFSGSGSGAAYSLTISSLESEDFADYYCIQYAQLPYTFGGGTKLEIK
  binding result: binds

B2: C7 (antibody, V domains shown)
VH: QITQKSEGSGILQPSQTLSLTCSFSGFSLNISGMGVGWIRQPSGKGLEWLAHIWWDDVKRYNPALKSRLTISKDTSSRQVFLKIASVDTADTATYYCVRIDNSYAMDYWGQGTSVTVSS
VL: DIVLTQSPASLAVSLGQRATISCRASKSVSTSGYSYVHWFQQKPGQPPKLLIYLASNLESGVPARFSGSGSGTDFTLNIHPVEEEDAATYYCQHSRELPWTFGGGTKLEIK
  binding result: binds

B3: E7 (antibody, V domains shown)
VH: EVKLVESGGGLVQPGGSLRLSCATSGFTFTDYYMSWVRQTPGKALEWLGFIRNKPNGYTTEYNASVKGRFTISRDNSRSVLYLQMNVLRAEDSATYFCARVPHDYGFFDYWGQGTTLTVSS
VL: DVLMTQSPLSLPVSLGDQASISCRSSQSIEHINGHTYLEWYLQKPGQSPKVLIYKVSNRFSGVPDRFSGSGSGTDFTLRISRVEAEDLGVYYCFQASHLPYTFGGGTKLEIK
  binding result: binds

B4: C9 (antibody, V domains shown)
VH: EVKLLQSGGGLVQPGGSLKLSCAASGIDFSRYWMGWVRRAPGKGLEWIGEINPDSSTINYAPSLKDKFIISRDNAKNTLYLQMIKVRSEDTALYYCARYWADWFFDVWGTGTTVTVSS
VL: DIQMTQSSSYLSVSLGGRVTITCTASDHIDNWLAWYQQKPGNAPRLLLSGATSLDTGVPSRFSGSGSGKDFTLSITSLQTEDVATYYCQQYWSTPYTFGGGTKLEIK
  binding result: binds

B5: G9 (antibody, V domains shown)
VH: EVQLQQSGPEQVRTGASVKISCKASGYFFTGYYLHWVRQSHGKSLEWIGYIRSYNGATKYNQKFEGKTTFTVDTSSSTAYMQINSLTSEDSAVYYCAKDEDSGYAMDYWGQGTSVTVSS
VL: DIVMTQSHKFMSTLVGDRVAITCKASQDVSSAVAWYQQKPGQSPKLLIYSASYRFTGVPDRFTGSGSGTDFTFTITTVQTEDLAIYFCQQHYSLPWTFGGGTKLEIK
  binding result: binds

B6: E10 (antibody, V domains shown)
VH: EVQLQQSGAELVRPGSSVKLSCKASGYTFTWYWIDWMKQRPGQGLEWIGNIYPSDSEVQYNQKFKDRATLTLDKSSTTAYMQLSSLTSEDSAVYYCARRLYDYFALDFWGQGTSVTVSS
VL: DIVMTQAAFSNPVTLGTSASISCRSSKSLQHSNGITYLYWYLQKPGQSPQLLIYQMSKFASGVPDRFSSSGSGTDFTLRISRVEAEDVGVYYCAQNLELPWTFGGGTKLEIK
  binding result: binds

B7: F10 (antibody, V domains shown)
VH: B6 VH with M37L, E57A, K63N, K74T, M81L, Q82H, L100I
VL: B6 VL with N11H, Y37F, F59L, V63I
  binding result: binds

B8: B11 (antibody, V domains shown)
VH: EVQLQQSGAEPVRPGTSVKFSCKASGYTLTDYWMHWVKQRPGQGLDWIGVIDPSDSYTTYNQKFKGKATLTVDKSSSTAYMQLSSLTSEDSAVYYCARGPTLYYFDYWGQGTTLTVSS
VL: DIVMTQPQKFMSTSVGDRVSVTCKASQNVGTNVVWCQQKPGQSPKALIYSASYLYSGVPDRFTGTGSGTDFTLTISNVQSEDLAEYFCQQYNNYPLTFGAGTKLELK
  binding result: binds

B9: D11 (antibody, V domains shown)
VH: EVQLQQSGAELVRPGTSVKLSCKTSGYTFISYWIHWVKQRPGQGLEWIGVIDPSDSYTNYNQNFKGKVTLTVDTSSSTAYMQLSSLTSEDSAVYYCARFDYDDYWGQGTTLTVSS
VL: QIVLTQSPAIMSASPGEKVTMTCSASSSVTYMQWYKQKSGTSPKRWIYDTSKLASGVPARFSGSGSGTSYSLTISSMEAEDAATYYCQQWNTNPWTFGGGTKLEIK
  binding result: binds

B10: F11 (antibody, V domains shown)
VH: EVQLQQSGPELVKPGASVKISCKASGYTFTDYYMNWVKQSHGKSLEWVGDINPNNGVTRYNQNFKGKGTMTVDKSSRTAYMEFRSLTSEDSAVYYCGRLGYYGKYKDGMDYWGQGTSVTVSS
VL: DIQMTQSPASLSVSVGETVTITCRASDNIYSNLAWYQQRQGKSPQLLVYAATNLLDGVPSRFSGSGSGTHYSLKINSLQSEDFGTYYCQHFWGTPFTFGSGTKLEIK
  binding result: binds

B11: B12 (antibody, V domains shown)
VH: EVQLQQSGPELVKPGASVKIPCKASGYTFTEYNMDWVKQSHGKSLEWIGDINPNNGDTIYNQKFKGKATLTVDKASSTAYMELRSLTSEDTAVYYCARGTLYGSNYYFVMDYWGQGTSVTVSS
VL: DIQITQSPASLSASVGETVTITCGASENIYGALNWFQRKQGKSPQLLIYGATTLADGMSSRFSGNGSGRQYSLKISGLHPDDVATYYCQNVLSIPWTFGGGTKLEIK
  binding result: binds
